Experimental data as given in patent publication US20100256040A1 (priority 2001, published 2010).

Molecular target: T1, interaction between GST-p6 and myc-Tsg101(1-207) (Homo sapiens, UniProt Q99816)
T1 construct: myc-tagged Tsg101 (residues 1-207); made in house; host or cells: Drosophila S2 cells, with Tsg101 used as crude cell lysate
T1 sequence (Q99816 1-207): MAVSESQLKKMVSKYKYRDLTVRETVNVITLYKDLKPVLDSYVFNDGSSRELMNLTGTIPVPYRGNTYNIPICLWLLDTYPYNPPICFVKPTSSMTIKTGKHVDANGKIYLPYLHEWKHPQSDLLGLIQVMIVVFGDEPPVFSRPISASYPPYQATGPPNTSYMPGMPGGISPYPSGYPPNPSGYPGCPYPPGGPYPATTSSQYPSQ
Assay: Competitive inhibition of GST-p6 : myc-Tsg101(1-207) binding on plates (fluorescence detection)
Conditions: competitive inhibition curve, FIG. 1
Method: A fusion protein with a GST tag fused to the HIV-1 GAGp6 domain was recombinantly expressed and purified by chromatography. In addition, a GAGp6 peptide containing the first 14 amino acid residues (“p6(1-14)”) was synthesized chemically by standard peptide synthesis methods. The peptide was purified by conventional protein purification techniques, e.g., by chromatography.
Nunc/Nalgene Maxisorp plates were incubated overnight at 4° C. or for 1-2 hrs at room temperature in 100 μl of a protein coupling solution containing purified GST-p6 and 50 mM Carbonate, pH=9.6. This allowed the attachment of the GST-p6 fusion protein to the plates. Liquids in the plates were then emptied and wells filled with 400 μl/well of a blocking buffer (SuperBlock; Pierce-Endogen, Rockford, Ill.). […]
Plates were then washed 4×100 μl with 1×PBST solution (Invitrogen; Carlsbad, Calif.). […] Plates were then read on a Packard Fusion instrument at an excitation wavelength of 325 nm and an emission wavelength of 420 nm. […]
Different concentrations of the p6(1-14) peptide were tested, and the relative intensities of the fluorescence signals obtained at different concentrations were plotted against the peptide concentrations. […]

p6(1-14): chemically synthesized GAGp6 peptide containing the first 14 amino acid residues (LQSRPEPTAPPEES)
inhibition of protein-protein interaction between GST-p6 and myc-Tsg101(1-207): capable of inhibiting protein-protein interaction
